The values that follow come from PMC10458388 (2023).

This experiment addresses C-terminus of human Hsp90α (residues 566-732) (Homo sapiens (Human), UniProt P07900). The experiment is described as follows: SEC-MALS-QELS.

C-terminus of human Hsp90α (residues 566-732), sequence (P07900 566-732): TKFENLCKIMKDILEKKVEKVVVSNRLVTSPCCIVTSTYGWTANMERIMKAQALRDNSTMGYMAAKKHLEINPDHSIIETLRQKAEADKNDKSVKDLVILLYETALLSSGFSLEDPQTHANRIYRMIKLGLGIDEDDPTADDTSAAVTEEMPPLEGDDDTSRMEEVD

B1: Sorghum bicolor RPAP3 (RNA polymerase II-associated protein 3), isoform 2 (protein)
chain: MEYKARSSGTSGTSTKSFRDLYNMKYSSYLNDEPMPDATSEKEQGNEYFKQKKFADAIECYSRSIGLSPTAVTFANRAMAYLKLRRFKEAEDDCTEALNLDDRYIKAYSRRITARKELGKLKEAMEDAEFAISLDPNNPELRKQYSEIKALHMEKMAKKVPAPAKRAVSGIAKTADVTSHPPTISQKDTIMEVDPPVGDAMKIRESASGRSNGGSGVIINDNTIQTQGRDANLKPGPEVSVQDLAARAASRYMASTVKSVKTPKTAYDFEVSWRALSDDTAQQIQLLKSIPPASLPEIFKNALSAPFLIDIVKCSASIFRDDTALAVSILENLARVPRFDLIIMCLSSMHKSELRKIWDQVFLAEKASADDQMEALRQLRGRYIPGGWQDSMLTSS
As for B1, the binding result was “binds”.
